Laboratory results published in publication PMC11615109, “PinX1 suppresses cancer progression by inhibiting telomerase activity in cervical squamous cell carcinoma and endocervical adenocarcinoma” (Genes & Diseases, 2024).
Each block holds one molecule with its values, some of them ahead of it.

How the values were obtained:
[1] = molecular target: TRF1 TRFH (TRF homology) domain; test: crystal structure; purified TRF1 TRFH-PinX1TBM complex, 2.7 Å
[2] = molecular target: T1, 3×Flag-TERT (purified human telomerase) (human, UniProt O14746 1-1132); test: pull-down; 3×Flag-TERT (purified telomerase) captured by GST-PinX1 constructs (GST as control), silver staining and Western blot; details: both partners purified
T1 construct: TERT, the protein subunit of human telomerase; Purified as telomerase; also called purified telomerase; source: human telomerase, purified

[3] = molecular target: T1, 3×Flag-TERT (purified human telomerase); test: pull-down; GST-PinX1-C (132-328) captured by 3×Flag-TERT (MBP-3×Flag as control), Western blot; details: both partners purified

T1 sequence (O14746 whole entry): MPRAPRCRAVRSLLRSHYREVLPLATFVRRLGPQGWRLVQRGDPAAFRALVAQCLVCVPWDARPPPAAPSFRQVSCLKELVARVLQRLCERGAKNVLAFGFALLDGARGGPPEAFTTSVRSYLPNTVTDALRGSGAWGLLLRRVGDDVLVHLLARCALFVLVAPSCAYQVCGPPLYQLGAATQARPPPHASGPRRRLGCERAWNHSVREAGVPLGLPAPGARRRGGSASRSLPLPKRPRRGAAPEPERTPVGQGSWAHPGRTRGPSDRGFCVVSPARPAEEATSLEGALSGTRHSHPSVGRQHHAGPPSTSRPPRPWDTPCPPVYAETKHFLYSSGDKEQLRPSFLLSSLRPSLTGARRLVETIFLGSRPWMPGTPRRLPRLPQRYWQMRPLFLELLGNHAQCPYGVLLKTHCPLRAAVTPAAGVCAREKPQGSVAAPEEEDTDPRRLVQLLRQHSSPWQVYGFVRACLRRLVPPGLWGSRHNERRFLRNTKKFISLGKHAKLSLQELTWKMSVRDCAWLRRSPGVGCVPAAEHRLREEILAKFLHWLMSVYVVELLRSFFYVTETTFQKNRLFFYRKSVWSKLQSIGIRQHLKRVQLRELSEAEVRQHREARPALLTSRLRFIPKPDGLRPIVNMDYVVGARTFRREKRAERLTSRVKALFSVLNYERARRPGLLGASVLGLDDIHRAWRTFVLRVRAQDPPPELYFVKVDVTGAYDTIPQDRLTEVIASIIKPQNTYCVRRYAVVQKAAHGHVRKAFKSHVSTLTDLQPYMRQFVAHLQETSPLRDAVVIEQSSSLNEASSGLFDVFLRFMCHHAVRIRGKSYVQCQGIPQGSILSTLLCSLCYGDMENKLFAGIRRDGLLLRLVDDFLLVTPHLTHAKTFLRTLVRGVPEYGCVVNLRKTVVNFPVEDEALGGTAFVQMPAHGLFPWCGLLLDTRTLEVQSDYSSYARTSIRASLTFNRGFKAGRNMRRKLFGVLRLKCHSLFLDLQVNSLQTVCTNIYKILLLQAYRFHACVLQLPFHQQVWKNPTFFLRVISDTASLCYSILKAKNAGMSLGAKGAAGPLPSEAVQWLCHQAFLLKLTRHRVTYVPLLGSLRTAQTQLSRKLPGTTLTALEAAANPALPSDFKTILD

stoichiometry N [1]: 2
Molecule: TRF1 TRFH (TRF homology) domain (domain or fragment)

binding result [2]: binds
B1: GST-PinX1(203-328) (domain or fragment, UniProt Q96BK5 203-328, looked up)
chain: SETQVERKRGKKRNKEATGKDVESYLQPKAKRHTEGKPERAEAQERVAKKKSAPAEEQLRGPCWDQSSKASAQDAGDHVQPPEGRDFTLKPKKRRGKKKLQKPVEIAEDATLEETLVKKKKKKDSK
notes: PinX1 residues 203-328 (TID)

binding result [3]: binds
B2: GST-PinX1(132-328) (domain or fragment, UniProt Q96BK5 132-328, looked up)
chain: GKDLSSRSKTDLDCIFGKRQSKKTPEGDASPSTPEENETTTTSAFTIQEYFAKRMAALKNKPQVPVPGSDISETQVERKRGKKRNKEATGKDVESYLQPKAKRHTEGKPERAEAQERVAKKKSAPAEEQLRGPCWDQSSKASAQDAGDHVQPPEGRDFTLKPKKRRGKKKLQKPVEIAEDATLEETLVKKKKKKDSK
notes: PinX1 residues 132-328; also called GST-PinX1-C (132–328); CTD (C-terminal domain)
